{
  "source": "patent US20210040201A1",
  "key": {"[1]": {"target": "Human TIGIT expressed on the surface of cells (human) (UniProt Q495A1)", "sequence (Q495A1 22-244 limits assumed)": "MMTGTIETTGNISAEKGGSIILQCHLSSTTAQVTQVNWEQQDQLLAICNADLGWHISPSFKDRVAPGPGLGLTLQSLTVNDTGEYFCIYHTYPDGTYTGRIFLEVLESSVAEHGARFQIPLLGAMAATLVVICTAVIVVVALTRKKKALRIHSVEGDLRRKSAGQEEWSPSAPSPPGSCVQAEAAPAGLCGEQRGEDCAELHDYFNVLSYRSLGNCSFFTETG", "experiment": "flow cytometry competition against 50 nM human CD155-mouse IgG2a Fc on CHOS cells expressing human TIGIT; negative control"}, "[2]": {"target": "Human TIGIT expressed on the surface of cells (human) (UniProt Q495A1)", "experiment": "flow cytometry competition against 50 nM human CD155-mouse IgG2a Fc on CHOS cells expressing human TIGIT; negative control (text says IgG4)"}, "[3]": {"target": "Human TIGIT expressed on the surface of cells (human) (UniProt Q495A1)", "experiment": "cell-based or functional assay"}, "[4]": {"target": "Human TIGIT expressed on the surface of cells (human) (UniProt Q495A1)", "experiment": "flow cytometry competition with 50 nM human CD155-mouse IgG2a Fc on CHOS cells overexpressing human TIGIT; fit value of the flat negative-control curve; the row of the drawn table is headed EC50, the text calls the values IC50"}, "[5]": {"target": "Human TIGIT expressed on the surface of cells (human) (UniProt Q495A1)", "experiment": "flow cytometry, antibody titrated on CHO cells expressing human TIGIT, median fluorescence intensity; fit value of the flat negative-control curve in the table under the graph"}},
  "data": [
    {"substance": "IgG1 (negative control) (antibody)", "values": [
      {"measurement": "IC50", "setting": "[1]", "result": 0.039, "unit": "nM"},
      {"measurement": "IC50", "setting": "[2]", "result": 1.15, "unit": "nM"},
      {"measurement": "EC50, MOA-based assay (luciferase reporter under IL2 promoter)", "setting": "[3]", "result": 273, "unit": "nM"}
    ]},
    {"substance": "IgG4 (antibody)", "values": [
      {"measurement": "IC50", "setting": "[4]", "result": 1.15, "unit": "nM"},
      {"measurement": "EC50", "setting": "[5]", "result": 53200, "unit": "nM"}
    ]}
  ]
}
